Experimental data: the DeepSol protein solubility set

Assay: soluble on expression in E. coli; label from the status in PepcDB or PDB records

Row | Sequence | soluble on expression in E. coli
1 | MATKARVMYDFAAEPGNNELTVNEGEIITITNPDVGGGWLEGRNIKGERGLVPTDYVEILPSDGKDQFSCGNSVADQAFLDSLSASTAQASSSAASNNHQVGSGNDPWSAWSASKSGNWESSEGWGAQPEGAGAQRNTNTPNNWDTAFGHPQAYQGPATGDDDDWDEDWDGPKSSSYFKDSESADAGGAQRGNSRASSSSMKIPLNKFPGFAKPGTEQYLLAKQLAKPKEKIPIIVGDYGPMWVYPTSTFDCVVADPRKGSKMYGLKSYIEYQLTPTNTNRSVNHRYKHFDWLYERLLVKFGSAIPIPSLPDKQVTGRFEEEFIKMRMERLQAWMTRMCRHPVISESEVFQQFLNFRDEKEWKTGKRKAERDELAGVMIFSTMEPEAPDLDLVEIEQKCEAVGKFTKAMDDGVKELLTVGQEHWKRCTGPLPKEYQKIGKALQSLATVFSSSGYQGETDLNDAITEAGKTYEEIASLVAEQPKKDLHFLMECNHEYKGFLGCFPDIIGTHKGAIEKVKESDKLVATSKITLQDKQNMVKRVSIMSYALQAEMNHFHSNRIYDYNSVIRLYLEQQVQFYETIAEKLRQALSRFPVM | soluble
2 | MLPSQHKLSNSEQFRATIRKGKRAGRSTVVLHFYAEATAGNLATAGGPRFGLVVSKAVGNAVTRHRVSRQLRHVVIAMKDQFPASSHVVVRALPPAATASSEELRADVQAALDKLNRKR | not soluble
3 | MFQQQKDWETRENAFAAFTMGPLTDFWRQRDEAEFTGVDDIPVRFVRFRAQHHDRVVVICPGRIESYVKYAELAYDLFHLGFDVLIIDHRGQGRSGRLLADPHLGHVNRFNDYVDDLAAFWQQEVQPGPWRKRYILAHSMGGAISTLFLQRHPGVCDAIALTAPMFGIVIRMPSFMARQILNWAEAHPRFRDGYAIGTGRWRALPFAINVLTHSRQRYRRNLRFYADDPTIRVGGPTYHWVRESILAGEQVLAGAGDDATQTLLLQAEEERVVDNRMHDRFCELRTAAGHPVEGGRPLVIKGAYHEILFEKDAMRSVALHAIVDFFNRHNSPSGNRSTEV | not soluble
4 | MTVKSQQQIIDSFKQANQDQLFQYYDSLTIDQQQEFIDQLSTIEEPAKLISTVEQAIQFSQTNSTSRNFTQLPNEQTASTLDLSKDILQNWTELGLKAIGNGEVAVLLMAGGQGTRLGSSAPKGCFNIELPSQKSLFQIQAEKILKIEQLAQQYLKSTKKPIINWYIMTSGPTRNATESFFIENNYFGLNSHQVIFFNQGTLPCFNLQGNKILLELKNSICQSPDGNGGLYKALKDNGILDDLNSKGIKHIHMYCVDNCLVKVADPIFIGFAIAKKFDLATKVVRKRDANESVGLIVLDQDNQKPCVIEYSEISQELANKKDPQDSSKLFLRAANIVNHYYSVEFLNKMIPKWISSQKYLPFHIAKKKIPSLNLENGEFYKPTEPNGIKLEQFIFDVFPSVELNKFGCLEVDRLDEFSPLKNADGAKNDTPTTCRNHYLERSSKWVIQNGGVIDNQGLVEVDSKTSYGGEGLEFVNGKHFKNGDII | soluble
5 | MDSKEVLVHVKNLEKNKSNDAAVLEILHVLDKEFVPTEKLLRETKVGVEVNKFKKSTNVEISKLVKKMISSWKDAINKNKRSRQAQQHHQDHAPGNAEDKTTVGESVNGVQ | soluble
6 | SLAWHQRKHTQATPLRDIAADYTLQDFKLVALDTQTGKESLTLLGQQMQHNQTDSSAEVTAPLFMIPDQAGQHWTLQAQTGWINKDGTLLRLRHDVKGDSPTDLGQLPTTFRTQSLDIYPNHHLAKTTDAVTITHQGIIQTGVGFEVNTKTQQYKFNSKVNTRYEPSAAR | soluble
7 | NKNFTWTTELTVSRNKNKVEKLPNTVQGFDTRNLTSIQEGYSLYSYWVYNQTGVNSQTGAIEIEDVNKDGKITTADRKIMGSVFPKLFGGFNNKFTYKGIDLGIFFIYSYGNKTWNQNEALGEQGGTLGDNRVLMAGQLDRWTTPGQETMVPKLTAANYQYFEVSRFLEDASFIRLRSLTLGYTLPKKWSSAVKTEKIRFYFTGTNLLLITKYTGSDPESNLGQGNLQGYDYDTPPQPRTIQFGLNLTL | not soluble
8 | MSLTAPRTPGTPRTPRTEHLVLPGVLTAAEAAATVRGILAVQREDGAIPWFRGHHLDPWDHVEAAMALDTADEHEAAERAYAWLARHQNQDGSWYAAYADGDFADVTDRGRETNFVAYVAVGVWHHYLATGDDLFLERMWPVVHAAVEFVLRLQQPGGQIGWRRGDDGTDTTDALLTGSSSVHHALRCALAIAEQREEPQPDWELAAGALRHAIRRHPERFLDKGRYSMDWYYPVLGGALTGTEARSRIQESWDRFVVPGLGVRCVVPNPWVTGGESAELALALWAVGESDHALEILQSIQHLRDPDSGLYWTGYVFEDETVWPRELTAWTAGSLLLAVAALGGHEATCQVFAGERLPRGLDPDCCVEGHHHHHH | soluble
9 | MKVMNIIHDSVVDGEGLRTVVFFAGCPHRCVGCHNPKSWNICNGTEMTVEEIVKEIASNPLTDVTFSSGDPFFQAAEVKKVAKIGKDLKKNLWMYTGYTLEEIQSSQNNDMIELLHYGDVLVDGRFEIEEKDLTLPFRGSSNQRIIRLKELEHHHHHH | not soluble
10 | MAHHHHHHMSGKLEDIGELVLLIGDFHSPMRNLGLPDCFKDLLKTDKIKHVLCTGNVGCRENLELLKNIADSVHITKGDMDDEYDFPEDISLTIGDFKMSLIHGHQIIPWGDTNALLQWQKKHDSDIVISGHTHKNSIVRYEGKYFINPGSATGAFQPWLSQPTPSFILMAVAKSSIVVYVYEEKNGKTNVEMSELQK | not soluble
11 | MAGDPMREITDIAVAESGDSDFKERLETKNAKSWLKSVSAFANGIGGTLYFGVEDRTRRIIGVQDIQLTISKITELIVARITPRPVFECIPLQQKGKDILAVRVDSGKHTPFYYVHDHHHTAYIRMGDESVPATDYQLNELILKGRNETYDSQITEKLRTDYSFTLLEATYLHTLNQHMSDSDYVSFGLAVEDGRLTNAGLLFADQCPLPDSRVFCTRWNGLQRGSVHEDATDDAEYSGNLIYLLKSATEFIRRNTRKGWTKTANGRVEKPDYAERAYFEGVVNALIHRTYDFRGTEVHVEMYDDRLVISSPGGIYGGGELEPMSDGSYISKRRNPILADIFSRLRYMERRGSGIKKIFEATKNLYGYTEEKKPFFLVNKQNDFFLTIPNVNYRSESVTTHDTIHDTIHDTIHDTIHDKIALLLSFCQTPRSREEMMEFVGLRNRDHFQKKYLRPLLEQEKIEMTIPEKPQSKNQKYRTKEVVKLEHHHHHH | soluble
12 | MEQLSIQTDELQDQFSNCSPASVDSSYSSCSSVEDEIEIYTRLVRNEEPLRRDFFREMSKNSSCSSSFDYGEFGPSSSSRKGSKTTDADLDSLFHSLVETSDQVNTVPKPTKTEVESIPEEFEQKPSSSSHRLPSEMNASITHIKSELDPTMQAFQMPHNDLFLATAAPHYNPFALSNDFMPNPLMPSFTSPFYPQHFPVSDSRRGSQGTTSSSNNTGGTPSPHSSSLPTSPPQLQGFLRSFLNPDNLSTPTSFGVPSETALDADKMCAVCNDRAVCLHYGARTCEGCKGFFKRTVQKNSKYTCAGNKTCPIDKRYRSRCQYCRYQKCLEVGMVKEIVRHGSLSGRRGRLSSKTKLARSEDQPSPPLPLLALMGKAIEDHTNMTVVRQFMQPFDETIALRILHGELHATKKLLMAMPQISEIQPADFQILLSRSFFAIMAIRVANRCGNSTDTIMFESGELFSLNAFPACFQQIIRFMVDKARTFSSLVDWEPQAFAAFIALQFLAGNTEHNVLGLTNKPLVDQVQSTIINALKDHCSGSQNKLAKIVRLTQEFDVFHALGLQALDILYPSHQLPEEFMFLINLTRAPLRSTDAPPACGSPVAPSGSSLFNFQMGPAAF | not soluble
13 | MHHHHHHSSGVDLGTENLYFQSMSHQVGVAGAVFDESTRKILVVQDRNKLKNMWKFPGGLSEPEEDIGDTAVREVFEETGIKSEFRSVLSIRQQHTNPGAFGKSDMYIICRLKPYSFTINFCQEECLRCEWMDLNDLAKTENTTPITSRVARLLLYGYREGFDKIDLTVEELPAVYTGLFYKLYHKELPENYKTMKGID | soluble
14 | MAHHHHHHMEYQGSPQQEEGDAALAKRLHEELNRSEASGHQEPSDQTGGRRQVECPMCSSVSVVVGAADGVQQVCERCKATTHGGFASGEDNENYSMQKLLLCNICQSYNRVPKGTFDAILCGACGNQLKAGGSVTENLSPEDTRVRTQEIRVRCPKCSSINTVEANTDALSVRFECGSCRYANEVFF | soluble
15 | MGSDKIHHHHHHMTEKLVAEKISNRHPAAAPLATGQVPWAIKGELILNCNCTVFCPCVVSLGKHAPTEGYCQAWSGVRIDEGHYGDEDLSGLNVGLMLEIPGLMARGNWKAAAYIDERSSSAAYEGLVNIFSGKARGTTGLFAVLVSEFLGAERAPVIFETEGNARRLMVGKKIQGEIVPVPGKGGADQVVTNTEYWMGPDITVATATKGRVRAFGRVWDFDGRSAEICQIDWSGPR | not soluble
16 | MKEESEESSMDHHSYTTEEVAKRLKVSKLTVYDLIKKGELPSYRVGRQMRIDAADLDQYIKQMKTGKVQVNPVKNDGSSILNTCIISGQELTLDMLAKRIENRLPSSNVLRAYQGSLTSLVKMYQGEGSIVSLHLFDGETGTYNIPYVKRILVGQPCLMINLLSRNVGFYVQKGNPKKIKTWADISGSTIKFVNREKGSGIRVLVDEQLRILKLNKADISGYEWEESNHLGVATQVANGKADVGVGSEKFSQIVNVDFIPIMKEQYDLVILKNKENEELIEVVKDILQSEEFHNELNAIGGYDITKTGQIVYEIK | not soluble
17 | MADLRLEREFAVAPEALFAWVSDGAKLLQWWGPEGLHVPADQHDLDFTRLGPWFSVMVNGEGQRYKVSGQVTHVKPPQSVGFTWGWHDDDDRRGAESHVMFIVEPCAKGARLILDHRELGDDEMSLRHEEGWTSSLRKLAAELALEHHHHHH | soluble
18 | GAMSGLADKVIWAVNAGGESHVDVHGIHYRKDPLEGRVGRASDYGMKLPILRSNPEDQVLYQTERYNEDSFGYDIPIKEEGEYVLVLKFAEVYFAQSQQKVFDVRVNGHTVVKDLDIFDRVGHSTAHDEIIPISIKKGKLSVQGEVSTFTGKLSVEFVKGYYDNPKVCALFIMKGTADDVPMLQPHPGLE | soluble
19 | SGNTSSERTGMGQEKANRRDSRGTKEGDRPKILMDSPEDADIFHGEDLKAPLEKEEFIEWRPDLEGSEKTDTLDRPTVFRWTGAGKEVYISGSFNNWTNKIPLIRSQNNFVAIVDLPEGEHQYKFYVDGLWTHDPTEPVVTNQLGTVNNIIQVKKTDFEVFDALMVDSQKCSDMSDLSSSPPGPYHQDAYTPKQEEKFKSPPILPPHLLQVILNKDTGISCDPALLPEPNHVMLNHLYALSIKDGVMVLSATHRYKKKYVTTLLYKPI | not soluble
20 | AHHHHHHGSNYRYPPRYGPEWGSGGIYGLRFHNGTLYFTLAFEGEAHFITEDSHKIYEFELVGPRPTSGGDTYNAVEVVDEYIYFGGWVHAPAKYRGKGEGKATIDFSNKYSHVHEYDTENQEVRLVWKESIHHPSEWAGEVSDIIYNPYTDELLLAREDGHTNLGVYSLSRNGRIRLLNDKPSAKGCQMHDLAFFGIGKNYRKGLEEIHALDMITERWEVFPLGESLDGGKYIQPHLGGNGVSVNNRVFAFVRGGVFVGNPHNDEQFAFVRLFDFYTFYAPFRVNALPIGGGILVGFNAHHDAYYRPRTQEEMIYHRFTNTIPGPSVLVYFAPPMVKIVGVFGARITSIEKVDGKILVATNTTPNVGALDATPFDTGNKDIFVLPEKILQEKPPAVSFSVPLAFPSEGKRMGAGVFGGIPLDGYDNARLIIKASRDNRLKVYEYDLALPLRDADVEEFDIKKGRNVIDLRTFSGIVSFELESEDFSGVARIELW | not soluble
21 | MSWMQNLKNYQHLRDPSEYMSQVYGDPLAYLQETTKFVTEREYYEDFGYGECFNSTESEVQCELITGEEDPKLLPYDKRLAWHFKEFCYKTSAHGIPMIGEAPLEHHHHHH | soluble
